# Source: the DeepSol protein solubility set
# Experiment: soluble on expression in E. coli; label from the status in PepcDB or PDB records
row,Sequence,soluble on expression in E. coli
1,MSLSDSRSDDRHPSVTPEQLATLSHEFRTPLNGVLGMARLLENTKLTAEQRSYVTALRESGDHLLSLVNDVLHFARLGAAAIELSLAPVDIEGLLRQVAELMSPRAHEKGIEIAWAVSSPLPTILADEGRLRQILLNFAGNAVKFTEAGGVLLTASAIDGGRVRFSVADTGPGVAPDARARIFEAFVQTDVTHATQLGGAGLGLAIVSRLSAAMGGAVGVGGELGQGAEFWFEAPFATAAAPLRAAPLEGRNVAIASPNAIVRAATARQIEAAGGRAYAAVDIASALAGAPADAVLLIDAALSGPRGALKPPAGRRSVVLLTPEQRDRIDRLKAAGFSGYLIKPLRAASLVAQVLQAVTADGVAEDEPAHDDRIAGAVASGARVLLAEDNPINALLARTLLEREGCIVDRVADGEQAIAAASAGVYDLILMDLRMPGLTGIEAARALRAKGVATPIAALTADAFDEDRRTCLAAGMDDFLVKPLTQEALRDALKRWTTGGVSGEGHHHHHH,soluble
2,MSLSDTIPVFDGHNDFLLRLLRNPANRETIWLKGDGTGHLDLPRMKEGGFAGGFFAIYVPSPQAHDAAHFEAMMDAPPFELPLPPMIRAEQAQPVALAMAGHLLWMERAARGRFKVCRTAAEVRSCHADGIVSGIMHMEGAEAIGADLDALHLFHSLGLRSLGPVWSRPTVFGHGVPFRFPGSPDTGEGLTEAGRRLVAECNRLKIMLDLSHLNEKGFDDVARLSDAPLVATHSNAHAVTPSTRNLTDRQLAMIRESRGMVGLNFATSFLREDGRRSAEMGWEPVLRHLDHLIDRLGEDHVGMGSDFDGATIPQGIADVTGLPALQAAMRAHGYDEPLMRKLCHENWYGLLERTWGEGHHHHHH,soluble
3,MSLSEAVERQTLTIANSKAWKPYSYLDEQGQPSGILIDFWLAFGEANHVDIEFQLMDWNDSLEAVKLGKSDVQAGLIRSASRLAYLDFAEPLLTIDTQLYVHRTLLGDKLDTLLSGAINVSLGVVKGGFEQEFMQREYPQLKLIEYANNELMMSAAKRRELDGFVADTQVANFYIVVSNGAKDFTPVKFLYSEELRPAVAKGNRDLLEQVEQGFAQLSSNEKNRILSRWVHIETIYPRYLMEGHHHHHH,soluble
4,MSLSEPILFVDDEQHVLNALQRVFSESGLETVFTRSPIEALELCRSKKFAVIVSDNMMPEMKGIELLTRIKEESPETVKCLLTAHADLDTALQAINSGEVFRFIVKPWRNEELYQAVSEGVARFRIWDALRQHDEGVLHSLAETIELKDHYTRGHCNRVADHALRICELLKLPSTTSREIRYGSWLHDCGKIGVPETILNSTCMLSEQEMIVVRKHPEWGANVAQQANLSPTLINIIRHHHERFDGTGYPFGLKGVSIPLEARIVAVADVFDALTTDRPYKPAMSFAKAHKLMGDMRGNHLEGRLVDMFFQTLDTEKTGSEGHHHHHH,not soluble
5,MSLSGKKVIYFIPIVDTGAYWSPMKKAAEDEAKALGYDLVVKTSPPNETQKNEKHIGFLDEAIKNKAAGIAIAPMDPDMFDKKVKEANDKGIPVVTFDADVKTKENRTSYIGTDNKLAGEQLGENGAKALKEKGITKGKIAMAAVNLTQTTMTYRQDGIKSGFEKVMGADAKNFEWLEPIQDNDQSAESKRQLEGQITSNSDMVAVFSLGSEGPDTGVMEAIKSQGKSGSIYHFGFDYTPTWENGVSSNLISGIVDQDSYAIGKTIIDTLDKKIKGEKVDDVYPVPVKWVTPDKIVEYGKEKQKQFTTELKGIITITTDPNSSSVDKLAAALEHHHHHH,soluble
6,MSLSIFTDLNTSRKWQIDQWLSAVNSHIEKIQQYGHSVVNPTPLLADGFEIKTQSPVVWQFPDGHDAPISNFASQQNWLRLLISMSVITETEKYRHLAFCQSEYFLNRFVDENSGLFYWGGHRFINLDTLASEGPESKSMVHELKHHLPYYEFLHQVNPEKTRHFIQGFWNAHVEDWSCLDLGRHGDYARQRDPDVFLHSRHDVVTPANWPELPLTKGLTFVNAGTDLIYAAFVYARHTGDAHAAAWGKHLYRQYVLARNPETGMPVYQFSSPLQRQPVPADDNQTQSWFGDRAQRQFGPEFGAIAREANVLFRDMRPLLIDNPLAMLDILRHQPDAEILTWVIAGLKNYYQYAYDVNSNSLRPMWNNGQDMTDYCFKRDGYYGKAGTVLKPFPLEGDYLLPLVRAWLLSDDDDLHTLIVTMLSRLEKQGIHQSASPFLLLAITELAHAKQSAQWAEYAWQMAEILFKRYFHHGLFVRSEHHRYVRLDDPFPAILLTLIAACRNKWSEVPAVLTQGGYIHGDYRINGESRVIYDTGIYLPRKINEGHHHHHH,not soluble
